According to a protein production outcome set (Wang et al. 2014):

Assay: label from the status in PepcDB records
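Further: failed if final PepcDB status was selected cloned or expressed and not failed if soluble or beyond.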

**Q.** With “MAIVGTILFAFYSVAIAAAWFFFGQNQTILAIAIVGSVVLVGVQYKVGKWMALRSVGAEDMDEQEFPRIHRRVESLSRDMGIKKPTLKVANMGVPNAFAVGRKGNGTVVVSRELIDILEHEELDGVLAHELSHIANRDVVTMQLGQGIASIVGIVAQYIVLFSGDNDLADFFLAIVVGNLVQFLVTLFVLAISRYREYVADADARRAIGTGEPLARALEKISQGNEQAAQQQRQRTSRGRGRRQRGQRNDDGLDQQVSALCISSPDTSVLQKLVSTHPPTEKRIQRLRS” as the sequence, how does the protein production read?
**A.** failed

**Q.** With “MAKAVASQEVANMLNDWYILMKKRDISGSIEMKDDIDKAIEKMEEDHDVLLYYQMLDFRLRLLLEDISQSSTEKLEAISFKDKDPKSTDDKLNYYFYLFKGIYEDYKQNHTEALNFFRIAEKRLSVIQNEIEKAEFHYKIGVLYYNLKATWLSIHHINIASGIFQGYDGYAKRVINCKMLIGLNYIDQFKFAESEVLLKEAIEKTEKIGDQYLLPYTYYNMGFLKSKEDKHEEALKYYNKAFAIKDFETKAKYAYLLCVYENTRSLFKTNDPDQAFKWIDTGFKKAQEVNSEIFELKFKTLYTLHSDCQNKLEVIKDFIHQLEDKKAWVDLEELLMDVANYYRENKLYEEAIYFYIKTDKASKLAGRGGE” as the sequence, how does the protein production read?
**A.** failed

**Q.** For “MAKEGEHSGAKEVKLTKPKISLSDLTFVIYVTTREKLSSSTISCEEIPLKKCGAELECGSNDRFHIQVENLSHMGISKSRMAGVKIECEVIYKEDSEDEAVVRIVNAERPLGTNFGWLNNDLLAPLAHRGLTAEIQLSFNSELLDKIDLQIFHRGEGRYFSQDDTLGYLQCFFPSKI”, which protein production is on record?
**A.** failed

**Q.** For “MAKGDVITLNFETFVDSDTQVKVTRLTPTDVICHRNYFYQKCFTQDGKKLLFAGDFDGNRNYYLLNLETQQAVQLTEGKGDNTFGGFISTDERAFFYVKNELNLMKVDLETLEEQVIYTVDEEWKGYGTWVANSDCTKLVGIEILKRDWQPLTSWEKFAEFYHTNPTCRLIKVDIETGELEVIHQDTAWLGHPIYRPFDDSTVGFCHEGPHDLVDARMWLVNEDGSNVRKIKEHAEGESCTHEFWIPDGSAMAYVSYFKGQTDRVIYKANPETLENEEVMVMPPCSHLMSNFDGSLMVGDGCDAPVDVADADSYNIENDPFLYVLNTKAKSAQKLCKHSTSWDVLDGDRQITHPHPSFTPNDDGVLFTSDFEGVPAIYIADVPESYKHLEHHHHHH”, which protein production is on record?
**A.** not failed

**Q.** For “MAKHEQILVLDPPSDLKFKGPFTDVVTTNLKLQNPSDRKVCFKVKTTAPRRYCVRPNSGIIDPGSIVTVSVMLQPFDYDPNEKSKHKFMVQTIFAPPNISDMEAVWKEAKPDELMDSKLRCVFEMPNENDKLND”, which protein production is on record?
**A.** not failed

**Q.** With “MAKHRLDALLVERGLCPSRQQAQRLIRAGEVRVAQAIVDKPGSLVAEDAVIEVAAKPPYVSRGGEKLAKALATFPIALSDRICLDAGISTGGFTDCLLQAGASKVYGIDVGYGQVDWKIRTDPRVLLRERTNIRNLQPTDLYGSDDVWPDLAVADLSFISLTKVLLTLGQLLRSPRELILLVKPQFEVGREKVGKGGVVRDRKDHVTAIAQVLESAQGLGWHGQGLTWSPLLGPAGNVEYLLWLSEAETTWAGDRAAIEALTTEAIATLRAGLEHHHHHH” as the sequence, how does the protein production read?
**A.** not failed

**Q.** For “MAKIHVLEKHVAELIAAGEVVERPSSVIKELVENSIDAGATTISVEIQRGGIAYMRVTDNGGGIAREDVPKAFLRNATSKVESAEDLDGIGTLGFRGEALASICAVSRVTLLTRTEEELAGTSYQIEGGEELALEDAGCAKGCTIVVRDLFYNTPARMKFLKKDVSEANAVAGVMDRAALSHPEISFRFVRDHKETLSTPGDRQLRSCIYAVYGKDFTAGLIPVDYAYNGIKVRGFISKPSAARPNRSMQHFFINGRFVKSKTAMVALEQAFKGSIMAGKFPSCVLHLSVPWEAVDVNVHPSKIEVRFLNEKPIFDAVYHGVKSALLSGDQRKEMILPRPKLDPPASQPEQIRLAAKPAIGSAAQETAEKEARLLTSQTEQAPNSSLGAYEKVVSSSAGRLAQPQQAPLGKAPDKAFPQTASGPAVAGTSHIGENAADKKPPSSLPGIGAAGRIPVPYEENEPEIYLPVKRQTAIPAVRDFISSPFSFSDEASKPKAAGEAPGDTGFEAAAADRGRKAEPKAQELSEEAAGEKPESSRQAAAAEPPREEAGLQPFGEKRQRLVGEAFRTYLIIEYGDDELLLIDKHAAHERILYEKLKKESGKSCAQYLLEPIPVTLDKNEYAAVLENQKLFWEAGFEVEDFGGGSVLVRSAPLSLEQEDIASSLMEIAGHLLENKTDMSTEKLDWLYHNIACRAAVKAGQITSDQELIALAVALRENPEIRYCPHGRPVSITLKKREIEKQFGRIQ”, which protein production is on record?
**A.** failed

**Q.** For “MAKITVGTENQAPIEIYYEDHGTGKPVVLIHGWPLSGRSWEYQVPALVEAGYRVITYDRRGFGKSSQPWEGYEYDTFTSDLHQLLEQLELQNVTLVGFSMGGGEVARYISTYGTDRIEKVVFAGAVPPYLYKSEDHPEGALDDATIETFKSGVINDRLAFLDEFTKGFFAAGDRTDLVSESFRLYNWDIAAGASPKGTLDCITAFSKTDFRKDLEKFNIPTLIIHGDSDATVPFEYSGKLTHEAIPNSKVALIKGGPHGLNATHAKEFNEALLLFLKD”, which protein production is on record?
**A.** not failed

**Q.** For “MAKIVQLPDDLSNKIAAGEVVERPASVVKELVENAIDANSSVIEIDVEEAGLASIKVLDDGEGMDAEDCRTAFLRHATSKIKDENDLFRVRTLGFRGEALPSIASVSHLSIKTSTGEGAGTHLTLQGGRIISEQKAPSRRGTEITVTNLFFNTPARLKYMKTIHTELGNITDVVNRIALAHPEVSIRLRHQGKTLLQTNGNGDVRHVLAAIYGTAVAKKMLPLEARSLDFEVKGYIALPEITRASRNYMSSVVNGRYIKNFPLVKAIHEGYHTLLPIGRHPITFIEINMDPLLVDVNVHPSKLEVRLSKETELHELIRDAIKDVFKQQQLIPSVQVPKKTAPLINKPEQQKLDFDQVREPAPLSDSDVEREYKPEPSFSAMKLSSLVKDPPPSAPVEREENVMQDTEPEWPGAEEYTPEAAPAVQAEPEQAGENVQDEETPKERVPIMYPIGQMHGTYILAQNENGLYIIDQHAAQERIKYEYFREKVGEVESEVQDLLVPLTFHYSKNEALTIDQHLDDLAKVGVFLESFGAGSYIVRCHPTWFPKGEETTIIEDIIQQVLDDRTIDIKKLREEAAIMMSCKGSIKANHHLRDDEITALLDELRRTSDPFTCPHGRPIIIHYSTYEMEKMFKRVM”, which protein production is on record?
**A.** failed

**Q.** With “MAKKKKEILFCDYYEDWVETYKVGAIEDVTLNKYYVAARQLRDICPKLLMSDFSRKDYQLIMNEYGKTHEKQTAKDFHHHIKAAILDAYHDGLLKSDPTYRAVIKGKEPGKKKLEHHHHHH” as the sequence, how does the protein production read?
**A.** not failed

**Q.** With “MAKKRSKLEIIQAILEACKSGSPKTRIMYGANLSYALTGRYIKMLMDLEIIRQEGKQYMLTKKGEELLEDIRKFNEMRKNMDQLKEKINSVLSIRQ” as the sequence, how does the protein production read?
**A.** not failed

**Q.** Which protein production does the source give for “MAKKTLILYYSWSGETKKMAEKINSEIKDSELKEVKVSEGTFDADMYKTSDIALDQIQGNKDFPEIQLDNIDYNNYDLILIGSPVWSGYPATPIKTLLDQMKNYRGEVASFFTSAGTNHKAYVSHFNEWADGLNVIGVARDDSEVDKWSK” here?
**A.** not failed

**Q.** With “MAKKTMGIHHITAIVGHPQENTDFYAGVLGLRLVKQTVNFDDPGTYHLYFGNEGGKPGTIITFFPWAGARQGVIGDGQVGVTSYVVPKGAMAFWEKRLEKFNVPYTKIERFGEQYVEFDDPHGLHLEIVEREEGEANTWTFGEVTPDVAIKGFGGATLLSEQPDKTADLLENIMGLERVGKEGDFVRYRSAGDIGNVIDLKLTPIGRGQMGAGTVHHIAWRANDDEDQLDWQRYIASHGYGVTPVRDRNYFNAIYFREHGEILFEIATDPPGFAHDETQETMGEKLMLPVQYEPHRTQIEQGLLPFEVRELD” as the sequence, how does the protein production read?
**A.** not failed

**Q.** With “MAKKVAVLAVNPVNGCGLFQYLEAFFENGISYKVFAVSDTKEIKTNSGMVLIVDDVIANLKGHEDEFDALVFSCGDAVPVFQQYANQPYNVDLMEVIKTFGEKGKMMIGHCAGAMMFDFTGITKGKKVAVHPLAKPAIQNGIATDEKSEIDGNFFTAQDENTIWTMLPKVIEALK” as the sequence, how does the protein production read?
**A.** not failed

**Q.** With “MAKLSPTTRIFALVIKEILTLFKDPKGRIVLIAPPLLQLLIFSFAATMEIKNISIGILNQDFGKHGYEVIQRFIGSPTFSKVFFIQKQSDIKPIIDNQEAMVVMTIPQDFSRKIESNSQANIQLILDGRRSNATQIVNGYISSIIENYNQEIQKTHGAIMTPPVMVTRSWFNENLLYLWFTVPSLVCILSMLISLVVTALSVARERELGTFDQLLVSPLTPYEILIGKTIPAIIIGLAEGLLMWVAAVWLFDVPFYGSPLLMVYILFIFIMSTVGVGLFISSMCKTQQQAILGVFIYMVPVVTLSGYASPVENMPEWLQDLTWFNPLKFTLIAVIGIFLKGMSALEVFITTWPLLLVGAVTLFIAGWFFKQRME” as the sequence, how does the protein production read?
**A.** failed

**Q.** For “MAKQDVIELEGTVLDTLPNAMFKVELENGHEILAHVSGKIRMNYIRILPGDKVTVEMSPYDLTRGRITYRYK”, which protein production is on record?
**A.** failed

**Q.** For “MAKRCALTFKGPMIGNHVSHANNKNKRRLLPNLRSIKIQLDDGTTKRIKVAASTLRTMRKGALEHHHHHH”, which protein production is on record?
**A.** not failed

**Q.** For “MAKRIFLFILTNILVLTTIGIVLSVLSSVTGVGTYFTADGGIDPMALLVFSLVVGFVGSFTSLAISRWMAKTMMGVRVLNPKKHSLSYEEQQLVDRVHRLSRSAGLTKMPEVGIYRSPEVNAFATGPSKRRSLVAVSSGLLEQMDDAAVEGVLAHEVAHITNGDMVTMTLLQGIVNTFVVFLSRIAAWIASRFVKEDLAPIVHFIAMIIFQIVFSILGSLVVFAYSRHREFHADRGGADLAGKDKMIHALRTLKSYSSRILEDDQTAVQTLKINGKKRSSLFSTHPDLDERIRRLEAK”, which protein production is on record?
**A.** failed

**Q.** Which protein production does the source give for “MAKSKSSQGASGARRKPAPSLYQHISSFKPQFSTRVDDVLHFSKTLTWRSEIIPDKSKGTLTTSLLYSQGSDIYEIDTTLPLKTFYDDDDDDDNDDDDEEGNGKTKSAATPNPEYGDAFQDVEGKPLRPKWIYQGETVAKMQYLESSDDSTAIAMSKNGSLAWFRDEIKVPVHIVQEMMGPATRYSSIHSLTRPGSLAVSDFDVSTNMDTVVKSQSNGYEEDSILKIIDNSDRPGDILRTVHVPGTNVAHSVRFFNNHLFASCSDDNILRFWDTRTADKPLWTLSEPKNGRLTSFDSSQVTENLFVTGFSTGVIKLWDARAVQLATTDLTHRQNGEEPIQNEIAKLFHSGGDSVVDILFSQTSATEFVTVGGTGNVYHWDMEYSFSRNDDDNEDEVRVAAPEELQGQCLKFFHTGGTRRSSNQFGKRNTVALHPVINDFVGTVDSDSLVTAYKPFLASDFIGRGYDD” here?
**A.** failed

**Q.** For “MAKSWCTVLERPATRAARSLAIKRSEKGEMLVSGLPYLSAVDDVTLMLRDGDLMGSFVVEGINAETVDSFHTVELCNAFSRFIAQQRSDVAYYVHRISVETRPTMPPVGGHPFNEEIDRRWQGYLQTVGLRDRVTVVTLVIRPPRKTTKFLSLFGGRDVHSRHEVEARALRLDQMINTCMVGVGEAGPSRLTVSDGRWLGLLRTLIDGSGGSLIPGTKFLPVADLLASSQITFQGPVFECEGTDPARRRFGTIVSVKDYPAETYPGILDRLNLPYNTVVTQSFTPIDPISAQGKIARVRKQMRAAEDAAISLMAQLEEAEDDVASGRVIFGDHHCSVAVFCDSLKELDGAMAYVTRAMQDAGAAIVRENFSSRVVYFAQHPGNFAYRTRPAMISSQNFAQLCAMHGQSKGSPPDKCPWGDAVTIFPTARGETFRFNFHLPGKPGQRTVGHTLVLGQTGSGKTLGTAFLISQAQRLGARTILFDKDNGFEMAVRAMGGCYSAVRMGDETGFNPMRAEADSRGAAWLMDWLAALAENDGGKLNPVQIQALSDAVQANTTADPRLQNLEQFRSQLRATDDDGDLYNRLGRWDETGQFGWLFGGKGLDPLAFDNRLTAFDLTEIFDNDVVRTAWLSYVFRRVERLVEDEHPTLLVLDEAWKLLDNPYFEARLKDWMLTMRKKNVAVVLLTQRVSHIKNSAAGDAILESAVTRLVYTSSFNTAAELAPLHLTPTESAFLQMSNVDNHLVLLKSGSDSVVLDFDLVAIGKGIDVLGGGRGQKAIAGWRDRPDFQMEMLHLEHHHHHH”, which protein production is on record?
**A.** failed

**Q.** With “MAKVVKLEPISRETTVNTNDNLLSALLDSELHVLKECGGRGMCATCHVYIKEGMESLSPINKREQRTLEVITTANATSRLACQARVLGPGVVVELPSG” as the sequence, how does the protein production read?
**A.** failed
